In US8492329B2, “Bioactive peptides and methods of using same” (Compugen Ltd., priority 2007, dated 2013):
“Also recorded” adds a separate entry of the source. No end group written: not given here.

Tests used:
GPR135 (RXFP3) = target: T1, GPR135 (RXFP3) (Homo sapiens, UniProt Q9NSD7); assay: cAMP HTRF assay on Euroscreen RXFP3 recombinant cells; format: cell-based; conditions: increasing concentrations, 30 min; FIG. 5
T1 construct: host or cells: CHO-K1 recombinant cell line (Euroscreen)
T1 sequence (Q9NSD7 1-469): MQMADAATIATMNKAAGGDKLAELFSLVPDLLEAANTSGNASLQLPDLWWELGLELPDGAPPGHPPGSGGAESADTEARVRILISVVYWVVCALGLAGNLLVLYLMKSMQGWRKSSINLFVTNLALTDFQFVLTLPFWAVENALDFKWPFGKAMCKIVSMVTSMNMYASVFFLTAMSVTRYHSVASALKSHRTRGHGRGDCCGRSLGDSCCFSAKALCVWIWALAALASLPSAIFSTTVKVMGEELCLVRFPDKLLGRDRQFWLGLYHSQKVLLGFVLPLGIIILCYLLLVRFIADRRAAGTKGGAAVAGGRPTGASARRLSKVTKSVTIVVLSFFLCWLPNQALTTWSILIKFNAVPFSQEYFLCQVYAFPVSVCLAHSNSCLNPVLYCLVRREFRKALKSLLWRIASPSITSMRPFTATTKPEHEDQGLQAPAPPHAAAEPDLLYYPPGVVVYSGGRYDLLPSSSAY
Experimental: The ability of P59C13V (SEQ ID NO: 6) and H3 Relaxin to activate CHO-K1 cells transfected by GPR135 (RXFP3), which is a non-LGR, Relaxin related receptor, was tested. The assay was performed by Euroscreen. For cAMP concentration analysis, Euroscreen cat. ES-656-A-cells (RXFP3, Euroscreen cat. ES-656-A) grown to mid-log phase in culture media without antibiotics were detached with PBS-EDTA, centrifuged and resuspended in assay buffer at a concentration of […]. The test was performed in 96 well plates. For agonist testing, 12 μl of cells (5×10^3 cells/well) were mixed with 12 μl of agonist Either H3-Relaxin or P59C13V (P59) (SEQ ID NO: 6) at increasing concentrations. The plates were then incubated for 30 min at room temperature. After addition of the lysis buffer, cAMP concentrations were estimated, according to the manufacturer specification, with the HTRF kit from Cis-Bio International (cat no 62AM2PEB).
.Relaxin 3 Fit (Eeuroscreen) was used as a positive control. RXFP3 (GPCR135) transfected cells were challenged with increasing concentrations of Relaxin 3 (H3 Relaxin—as a positive control—[…]) or P59C13V (P59) (SEQ ID NO: 6) (1 nM-3 uM).

LGR6 = target: T2, LGR6 (Homo sapiens, UniProt Q9HBX8); assay: cAMP accumulation in CHO-K1 cells transiently transfected with LGR6; format: cell-based; conditions: 1 uM, without Forskolin, FIG. 3A
T2 construct: expressed in transfected cells; host or cells: CHO-K1 (transient)
T2 sequence (Q9HBX8 25-967): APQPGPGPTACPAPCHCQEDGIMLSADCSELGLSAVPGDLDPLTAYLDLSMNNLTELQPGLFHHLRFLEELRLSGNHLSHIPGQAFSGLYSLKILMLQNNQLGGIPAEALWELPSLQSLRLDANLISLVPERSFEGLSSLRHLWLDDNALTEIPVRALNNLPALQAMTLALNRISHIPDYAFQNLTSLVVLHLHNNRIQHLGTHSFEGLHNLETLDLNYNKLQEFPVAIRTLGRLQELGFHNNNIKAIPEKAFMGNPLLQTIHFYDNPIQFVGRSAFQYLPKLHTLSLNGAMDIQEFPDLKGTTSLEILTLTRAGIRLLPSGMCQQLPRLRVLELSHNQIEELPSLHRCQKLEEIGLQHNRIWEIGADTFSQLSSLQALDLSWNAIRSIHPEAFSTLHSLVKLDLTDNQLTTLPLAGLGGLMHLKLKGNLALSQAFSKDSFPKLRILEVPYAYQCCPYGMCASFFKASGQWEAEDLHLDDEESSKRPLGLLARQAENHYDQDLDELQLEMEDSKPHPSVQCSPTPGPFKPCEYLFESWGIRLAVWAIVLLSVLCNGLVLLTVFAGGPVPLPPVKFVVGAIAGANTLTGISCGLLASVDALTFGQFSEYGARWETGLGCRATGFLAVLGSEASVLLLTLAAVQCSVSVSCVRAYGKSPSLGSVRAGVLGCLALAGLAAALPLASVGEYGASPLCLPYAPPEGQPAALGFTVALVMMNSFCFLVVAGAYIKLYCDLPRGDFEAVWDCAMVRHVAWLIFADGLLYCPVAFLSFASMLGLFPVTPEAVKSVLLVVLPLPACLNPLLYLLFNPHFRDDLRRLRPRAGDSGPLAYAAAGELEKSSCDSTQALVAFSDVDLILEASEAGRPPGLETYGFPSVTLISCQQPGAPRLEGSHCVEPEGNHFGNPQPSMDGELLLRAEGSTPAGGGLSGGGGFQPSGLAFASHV
Experimental: [The procedure below names another target; the source says it served here with some conditions changed.] LGR7 (RXFP1) or LGR8 (RXFP2) were transiently transfected into CHO-K1 cells as follows: Cells (12 million) were plated into T75 flasks on the day preceding transfection. Cells were transfected with a GPCR DNA and Gα16 using a lipid technique according to the manufacturer's recommendation. Cells were transfected for 5 hours, then re-plated into 96-well dishes (60,000 cells per well) and grown overnight. Transfected cells were plated into 24 wells of a 96-well plate. Cells were pre-treated with 0.5 mM IBMX (stimulation buffer) for 10 min at 37° C., then stimulated with either a positive control (Relaxin 2) or a candidate peptide (for Gs functional examination), followed by stimulation or a preincubation with 10 μM forskolin (for Gi functional examination). Following a 20 minutes stimulation by incubation with 1 μM of either positive control or the tested peptides, either with or without forskolin, intracellular cAMP was assayed using the Hit Hunter cAMP kit (DiscoveRx Corporation) according to the manufacturer's recommended protocol. Data was converted to nmol of cAMP by running a standard cAMP curve.

Substance | cAMP activation (Gs) of RXFP3 (GPR135 (RXFP3)) | Gs activation (cAMP accumulation) (LGR6)
GQKGQVGPPGAAVRRAYAAFSV [Peptide P59C13V] | didn't show any cAMP activation (Gs) | –
GQKGQVGPPGAAVRRAYAAFSVGRRAYAAFSV-OH [Peptide P74C13V] | – | significant increase in cAMP accumulation; also recorded: slight Gs activation
